Experiment [1] concerns the target gp120 (bead-conjugated). The experiment is described as follows: Fc Array (multiplexed bead assay, anti-huIgG-PE detection). The settings on record: variants incubated with gp120-coated microspheres at equal concentrations; read off a plot.
Experiment [2] has as its target tetrameric FcγRIII detection reagent (UniProt P08637). Briefly: Fc Array (multiplexed bead assay, tetrameric FcγRIII detection). Conditions: variants incubated with gp120-coated microspheres at equal concentrations; read off a plot.
Chain of UniProt P08637 (P08637 17-254): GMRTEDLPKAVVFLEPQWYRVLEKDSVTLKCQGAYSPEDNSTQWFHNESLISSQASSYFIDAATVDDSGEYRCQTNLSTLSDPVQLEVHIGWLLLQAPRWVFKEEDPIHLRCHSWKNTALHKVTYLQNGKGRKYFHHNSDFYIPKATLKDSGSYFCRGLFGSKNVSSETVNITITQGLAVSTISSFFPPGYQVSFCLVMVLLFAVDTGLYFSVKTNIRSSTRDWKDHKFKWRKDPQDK

Take b12 R292A: the response came out at 13000 MFI in experiment [1] and 140 MFI in experiment [2].

For the substance b12 G236A, the values for the response in experiment [1] and in experiment [2] were 14000 MFI and 59 MFI, respectively.

On to b12 IE/SD, for which the results for the response in experiment [1] and in experiment [2] were 14000 MFI and 2000 MFI, respectively.

For b12 SD/IE/AL, the response in experiment [1] was 13000 MFI; in experiment [2] it was 2800 MFI.

Consider b12 S267G, for which the response amounted to 14000 MFI in experiment [1] and 80 MFI in experiment [2].

In the case of b12 S239A, the response in experiment [1] stood at 13000 MFI; in experiment [2] it was 110 MFI.

As for b12 S298A, the response in experiment [1] came to 14000 MFI; in experiment [2], 96 MFI.

For b12 IE/SD/GA, the response is 13000 MFI in experiment [1] and 1100 MFI in experiment [2].

Take b12 D270E: the results for the response in experiment [1] and in experiment [2] were 14000 MFI and 110 MFI, respectively.

b12 I332E: the response in experiment [1] amounted to 13000 MFI; in experiment [2], 320 MFI.

For b12 K338A, the response in experiment [1] came out at 13000 MFI; in experiment [2] it was 110 MFI.

The record behind these values is article PMC5333794.
